This assay concerns the target HLA-E expressed on the surface of HeLa cells (human (endogenous on HeLa cells)) (UniProt P13747). The experiment in a line: cell-based or functional assay.
Sequence of UniProt P13747 (P13747 22-358): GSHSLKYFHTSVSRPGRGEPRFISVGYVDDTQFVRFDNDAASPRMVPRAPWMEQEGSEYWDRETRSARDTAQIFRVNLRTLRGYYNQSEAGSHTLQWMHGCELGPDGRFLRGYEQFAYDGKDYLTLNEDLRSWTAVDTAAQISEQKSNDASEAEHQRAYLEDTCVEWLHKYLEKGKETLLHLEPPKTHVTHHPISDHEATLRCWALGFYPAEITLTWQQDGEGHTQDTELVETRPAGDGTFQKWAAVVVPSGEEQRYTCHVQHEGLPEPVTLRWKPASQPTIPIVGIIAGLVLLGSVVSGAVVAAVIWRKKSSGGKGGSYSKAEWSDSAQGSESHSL

Regarding “NKG2A receptor on the surface of NK-92 cells (from UniProt P26715 1-233)”, the percentage of lysis of the target HeLa cells (Calcein release), NKG2A-KO against wild-type NK-92 effector cells (% more target HeLa cells killed) was 10 to 15.

The values are drawn from patent US20180100158A1.
